Target: the molecule itself
Assay: SEC

B1: HvJAMM2 (Haloferax volcanii JAMM/MPN+ domain protein, HVO_1016), His6-tagged (natural protein, UniProt D4GVJ3 1-161, looked up)
chain: MRLFRSREVVGIAADALDFALEASAETHPNEYMGLLRGEEARRVGVDRDGYVVTDVLIIPGTVSDPYSATVRNDLVPNDFHAVGSIHSHPNGVLRPSDADLDTFGSGRVHIIIGSPYGPDDWEAFDQSGEVRDLDVLDADLSDPESFFDFTQDDIDAELDR
For B1, the “stoichiometry N” value was 2.
